Earlier results, collected in publication PMC9366932.

Target: Asp309 (UniProt position 309, LIAAPDTMSVS)

In the case of “Aromatase (cytochrome P450 19A1), recombinant form referred to as aromatase WT (Homo sapiens)”, the pKa is given as 8.2.
